Tests used:
6His-IscS [1] = molecular target: T1, 6His-IscS (E. coli, UniProt P0A6B7 1-404)
T1 construct: IscS cysteine desulfurase, E. coli; IscS-coding region (primers OSD56/OSD57, start codon to stop codon, 1,248 bp fragment) between EcoRI and XhoI of pET6His-TEV; The vector's name tells a TEV site between the 6His tag and the protein; no cleavage is told; also called pET-6His-TEV-iscS; source: E. coli MG1655(DE3), purified (Ni-nitrilotriacetic acid agarose); not shown: 6His, N-terminal, kept
T1 sequence (P0A6B7 whole entry, the tested form may be a part): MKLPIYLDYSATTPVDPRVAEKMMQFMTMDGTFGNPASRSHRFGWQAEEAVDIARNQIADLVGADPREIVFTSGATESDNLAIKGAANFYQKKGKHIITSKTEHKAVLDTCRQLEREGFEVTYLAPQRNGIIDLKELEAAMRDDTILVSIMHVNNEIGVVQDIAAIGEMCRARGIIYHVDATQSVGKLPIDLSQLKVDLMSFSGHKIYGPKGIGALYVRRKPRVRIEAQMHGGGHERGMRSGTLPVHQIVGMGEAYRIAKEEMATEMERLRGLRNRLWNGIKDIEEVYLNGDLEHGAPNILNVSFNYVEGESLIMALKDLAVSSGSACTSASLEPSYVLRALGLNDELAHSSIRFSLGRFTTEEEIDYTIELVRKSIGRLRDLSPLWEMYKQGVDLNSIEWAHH

6His-IscS [2] = molecular target: T1, 6His-IscS; test: native gel or EMSA; 6His-IscS 15 µM with 6His-ACP or variant 30 µM, 20 min at 37°C in 100 mM Hepes, 150 mM NaCl; non-denaturing 12% PAGE, Coomassie Blue; conditions: both partners purified

| cysteine desulfurase activity of IscS (methylene blue assay), relative to IscS alone (6His-IscS [1]) | binding result (6His-IscS [2]) | Molecule |
| --- | --- | --- |
| 3 fold | – | acylated 6His-ACP (from UniProt P0A6A8 1-78) (natural protein) |
| – | binds | 6His-ACP (natural protein, E. coli, UniProt P0A6A8 1-78, looked up, preparation expected to comprise a mixture of apo-ACP, holo-ACP (phosphopantetheine-bound ACP, on Ser36) and a minor fraction of acylated ACP, acyl carrier protein (ACP), E. coli; ACP-coding region (primers OSD146/OSD147, start codon to stop codon, 263 bp fragment) between EcoRI and XhoI of pET6His-TEV; The vector's name tells a TEV site between the 6His tag and the protein; no cleavage is told; also called ACPWT; wild-type ACP; source: E. coli MG1655(DE3), 10 mM pantothenate in the culture, purified (Ni-nitrilotriacetic acid agarose); …) MSTIEERVKKIIGEQLGVKQEEVTNNASFVEDLGADSLDTVELVMALEEEFDTEIPDEEAEKITTVQAAIDYINGHQA |

Source: paper PMC13343975, “A connection between two ancient and essential cellular processes, iron-sulfur protein biogenesis and fatty acid synthesis, in Escherichia coli” (mBio, 2026)
